From the supplement of paper PMC10567573

B1: SMG5 (parent)
chain: FVSIAQSEQESLLQQAQAQFRMAQ
B2: TRIM39 (parent)
chain: ERDFPCPVCRKTSRYRSLRPNRQL

Variants of: B1
Test: protein stability index of a GFP-peptide fusion (GPS, HEK-293T) (PSI 1-6); higher = more stable
Details: c terminus: a fixed tail appended
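Note: lentivirally expressed fusions sorted by FACS into six bins by GFP to DsRed ratio, PSI derived from sequencing read proportions per bin multiplied by bin number.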

Protein stability index, by site and new letter:
Q17: N 2.33 | P 3.35 | R 3.07 | S 2.48 | T 1.73 | V 2.03 | W 1.39 | Y 1.8
A18: C 1.98 | D 2.37 | E 2.48 | F 1.74 | G 1.89 | H 2.19 | I 2.54 | K 2.79 | L 2.14 | M 1.7 | N 3.02 | P 1.98 | Q 2.04 | R 2.54 | S 2.74 | T 2.3 | V 1.52 | W 1.94 | Y 2.86
Q19: A 1.87 | C 1.93 | D 2.27 | E 2.82 | F 1.35 | G 2.08 | H 1.66 | I 2.33 | K 1.96 | L 2.47 | M 2.09 | N 1.97 | P 1.81 | R 3.17 | S 1.81 | T 1.98 | V 2.13 | Y 1.08
F20: A 2.44 | C 2.22 | D 3.06 | E 3.12 | G 3.13 | H 3.04 | I 2.48 | K 2.59 | L 2.08 | M 2.29 | N 2.5 | P 2.75 | Q 2.5 | R 2.32 | S 2.57 | T 3.17 | V 2.37 | W 1.82 | Y 2.49
R21: A 2.27 | C 1.44 | D 2.48 | E 2.64 | F 1.92 | G 2.08 | H 2.4 | I 1.76 | K 2.59 | L 2.43 | M 1.89 | N 1.94 | P 2.17 | Q 2.6 | S 1.82 | T 2.32 | V 2.56 | W 3.6 | Y 2.63
M22: A 2.43 | C 3.04 | D 2.68 | E 2.57 | F 2.2 | G 2.3 | H 2.26 | I 2.14 | K 2.13 | L 2.01 | N 1.94 | P 2.25 | Q 2.05 | R 2.7 | S 2.92 | T 2.5 | V 2.61 | W 2.4 | Y 2.13
A23: C 2.1 | D 2.21 | E 2.85 | F 1.75 | G 2.46 | H 2.85 | I 2.22 | K 2.12 | L 2.4 | M 2.17 | N 2.12 | P 1.91 | Q 2.29 | R 2.26 | S 2.31 | T 2.33 | V 2.02 | W 2.58 | Y 2.16
Q24: A 2.15 | C 1.94 | D 2.12 | E 2.74 | F 2.48 | G 1.71 | H 1.92 | I 2.11 | K 2.65 | L 2.4 | M 1.88 | N 2.24 | P 2.38 | R 2.57 | S 2.65 | T 2.08 | V 1.63 | W 2.76 | Y 2.1

Variants of: B2
Test: as above
Details: c terminus: a fixed tail appended

Protein stability index, by site and new letter:
E1: A 2.16 | C 2.2 | D 2.4 | F 2.14 | G 1.83 | H 2.03 | I 2.19 | K 1.77 | L 2.34 | M 2.16 | N 2.01 | P 2.93 | Q 2.06 | R 2.71 | S 2.25 | T 2.71 | V 2.06 | W 2.4 | Y 1.66
R2: A 2.13 | C 2.01 | D 2.1 | E 2.06 | F 1.83 | G 1.57 | H 2.33 | I 2.06 | K 2.02 | L 1.63 | M 2.28 | N 1.86 | P 1.78 | Q 2.27 | S 1.9 | T 1.91 | V 3.06 | W 2.18 | Y 2.22
D3: A 2.2 | C 2.08 | E 1.64 | F 2.93 | G 1.6 | H 1.78 | I 1.39 | K 2.64 | L 1.96 | M 2.56 | N 2.5 | P 2.06 | Q 2.62 | R 1.99 | S 2.64 | T 1.84 | V 2.48 | W 2.15 | Y 1.42
F4: C 2.12 | D 2.93 | E 2.02 | G 2.3 | H 3.14 | I 2.35 | K 2.86 | L 2.1 | M 2.48 | N 2.89 | P 2.41 | Q 2.13 | R 2.09 | S 1.81 | T 1.82 | V 2.39 | Y 2.84
P5: A 1.74 | C 2.9 | D 2.49 | E 1.76 | F 1.81 | G 1.67 | H 3.7 | I 2.91 | K 2.72 | L 3 | M 2.26 | N 1.84 | Q 1.18 | S 2.04 | T 2.93 | V 2.29 | W 1.87 | Y 2
C6: A 2.69 | D 3.74 | F 2.03 | G 3.97 | H 3.61 | I 3.24 | K 3.13 | L 3.19 | M 3.1 | Q 3.24 | S 3.17 | T 3.02 | V 3.23 | W 2.01 | Y 3.21
P7: A 2.2 | C 1.94 | D 2.43 | F 1.8 | G 2.38 | H 3.7 | I 2.75 | K 2.6 | L 2.37 | M 2.17 | N 2.19 | Q 1.96 | R 2.88 | S 2.22 | T 1.85 | W 1.96 | Y 2.09
V8: A 2.89 | C 2.66 | D 2.2 | E 1.72 | F 1.41 | G 2.75 | H 2.34 | I 2.38 | K 2.68 | L 1.96 | M 2.31 | N 2.43 | P 3.91 | Q 2.35 | R 3.23 | S 3.84 | T 3.06 | Y 1.95
C9: A 3.79 | D 4.01 | F 2.45 | G 3.91 | H 2.56 | I 3.29 | K 3.42 | M 3.41 | N 2.78 | P 2.92 | Q 3.81 | S 3.77 | T 3.77 | V 3.26 | Y 3.62
R10: A 1.88 | C 3.16 | D 2.89 | E 1.91 | F 1.74 | G 4.1 | H 2.53 | I 2.6 | K 2.14 | L 2.45 | M 2.88 | N 2.22 | P 3.13 | Q 2.08 | S 1.15 | T 2.16 | V 2.04 | Y 2.03
K11: A 2.45 | C 2.55 | D 1.7 | E 1.17 | F 1.88 | G 1.75 | H 3.77 | I 1.21 | M 1.65 | N 3.36 | P 2.54 | Q 2.4 | R 1.85 | S 2.25 | V 1.63 | W 2.84 | Y 1.8
T12: A 2.64 | C 2
